What was measured:
[1] = molecular target: Stx1 (type-I Shiga toxin, recombinant holotoxin) (EHEC O157:H7) (UniProt P08026); test: ELISA, plates coated with Stx1, serum titer
[2] = molecular target: Stx2 (type-II Shiga toxin, recombinant holotoxin) (EHEC O157:H7) (UniProt P09386); test: ELISA, plates coated with Stx2, serum titer

With “serum of the placebo control PBS group (BALB/c mice) (antibody)” the titer of serum IgA and IgG [1] was less than 2 and the titer of serum IgA and IgG [2] was less than 2.
